From US10968255 come the findings set out here.

For test [1], the target named is B41 SOSIP.664 gp140 trimer (HIV-1). Description: negative stain EM.
Test [2] has as its target BG505 SOSIP.664 gp140 trimer (HIV-1). Description: negative stain EM.
Test [3] deals with CH505 transmitted/founder (TF) gp120 Env (HIV-1). The experiment in a line: SPR, antibody captured, gp120 injected. (In general: SPR reads the build-up and loss of mass on a sensor chip optically.)
Test [4] concerns the target CH505 TF loop D mutant M20 Env (pseudovirus) (HIV-1). Description: cell-based or functional assay.
In test [5] the target is CH505 TF loop D mutant M7 Env (pseudovirus) (HIV-1). Description: cell-based or functional assay.
The target in test [6] is CH505 TF loop D mutant M8 Env (pseudovirus) (HIV-1). The experiment in a line: cell-based or functional assay.
In test [7] the target is CH505 TF loop D mutant M9 Env (pseudovirus) (HIV-1). The experiment in a line: cell-based or functional assay.
In test [8] the target is CH505 transmitted/founder (TF) gp120 Env (HIV-1). Description: competition ELISA, competitor biotinylated CH240.
Test [9] has the same target. The experiment in a line: competition ELISA, competitor biotinylated CH241. Background: ELISA stands for enzyme-linked immunosorbent assay.
Test [10] concerns the target CH505 TF chimeric SOSIP.III trimer (CH505TFchim.6R.SOSIP.664v4.1) (HIV-1 (CH505 gp120 with BG505 gp41, chimera)). Description: negative stain EM.
Test [11] deals with CH505 transmitted/founder (TF) gp120 Env (HIV-1). The experiment in a line: competition ELISA, blocking of sCD4 binding to CH505 TF gp120.
Test [12] shares this target. Description: competition ELISA, blocking of CH106 binding to CH505 TF gp120.

On to CH235.9 Fab, for which the stoichiometry (Fabs per trimer) (Fabs per trimer) in [1] and in [2] was 3 in each case.
As for “CH103 lineage unmutated common ancestor (UCA) (antibody)”, in test [3], the Kd (as a rule, a measure of binding affinity in units of concentration) was determined as 227 nM and the kon – broadly, the second-order rate constant of association – stood at 37000 M⁻¹ s⁻¹.
Take CH235.9 N30T (antibody): the neutralization IC50, TZM-bl pseudovirus assay in [4] is greater than 44 µg/mL; in test [5], greater than 44 µg/mL; in [6], 24.3 µg/mL; in [7], greater than 44 µg/mL. The substance further showed a fold increase of the neutralization IC50 against CH235.9 in [6] of 37 fold.
Turning to CH106 (antibody), the IC50 (in general, the midpoint of a concentration-inhibition curve) is 2.3 µg/mL in test [8] and 14.3 µg/mL in test [9].
As to CH103 Fab, the stoichiometry (Fabs per trimer) (Fabs per trimer) in [2] and in [10] was 3 each time. For the same substance, the binding ratio (CH103 to gp140) (CH103 per gp140) in [10] was 1.
CH235.9 (antibody) gave a neutralization IC50, TZM-bl pseudovirus assay in test [6] of 0.66 µg/mL.
For CH235 Fab, the stoichiometry (Fabs per trimer) (Fabs per trimer) worked out at 2 in test [1] and 1 in test [2].
In test [3], CH241 (antibody) yielded a Kd of 0.7 nM. Besides, in [3], the koff – broadly, a measure of how fast the partners let go of each other – turned out to be 0.00033 s⁻¹. Further, the IC50 in test [11] turned out to be 1.5 µg/mL; in test [12] it was 2.6 µg/mL.
In the case of CH235.12 Fab, the stoichiometry (Fabs per trimer) (Fabs per trimer) in test [1] and in [2] was 3 each time.
